Measured values reported in paper PMC3260234.

T1: OxyS (Mycobacterium tuberculosis) (UniProt L7N677)
T1 sequence: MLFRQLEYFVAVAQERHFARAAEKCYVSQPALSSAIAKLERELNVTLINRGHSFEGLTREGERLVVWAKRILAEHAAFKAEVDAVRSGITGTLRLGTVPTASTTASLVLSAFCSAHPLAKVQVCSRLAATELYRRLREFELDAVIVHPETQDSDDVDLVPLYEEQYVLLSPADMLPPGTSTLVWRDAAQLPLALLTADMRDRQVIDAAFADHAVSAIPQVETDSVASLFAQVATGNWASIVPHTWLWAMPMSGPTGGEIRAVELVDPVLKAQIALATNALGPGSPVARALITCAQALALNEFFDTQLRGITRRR

T2: OxyS (Mycobacterium tuberculosis, UniProt L7N677 1-314)
T2 sequence: T1 sequence

B1: OxyS box1mut (dsDNA)
DNA 1: TGTCCCACGGCCTCGCCCCAT
DNA 2: ATGGGGCGAGGCCGTGGGACA
B2: OxyS box1 (dsDNA)
DNA 1: TGTCTGACGGCCTCGGACCAT
DNA 2: ATGGTCCGAGGCCGTCAGACA

Key:
[1] = biological target: T1, OxyS (Mycobacterium tuberculosis); assay: EMSA; settings: 20 mM Tris-HCl pH 7.5, 100 mM NaCl, 2 mM EDTA, room temperature 20 min
[2] = biological target: T1, OxyS (Mycobacterium tuberculosis); assay: competition; settings: 20 mM Tris-HCl pH 7.5, 100 mM NaCl, 2 mM EDTA, room temperature 20 min
OxyS = biological target: T2, OxyS; assay: EMSA; 0-300 nM OxyS; 20 mM Tris-HCl pH 7.5, 100 mM NaCl, 2 mM EDTA, room temperature 20 min; […]; settings: protein: recombinant; tags: 6xHis (pET28a); chain copies: 4; label: 5'-FITC on forward strand; blunt

Molecule | binding [1] | binding [2] | binding result (OxyS)
TCGACATCGGCGATAACCCCGCAAGACCGGCAGACGATGTGATGGTGGTTGTCGCCGACCCTGGACTCGTAGCGCGCGACGGAGCCCGAGGGTTGGATCTTTCGCACCAAGCCCGCGGCGGTCAGGGCATGCAGCACGTCGTACACGGCTTGCCGGGATACGTCGGGCAGCGCAAAACGC (double strand) [katGp1] | no binding | no binding | –
CCGATGTCGACTGTGCTGTTGGCGAGGCACCCTGTCTGACGGCCTCGGACCATAACGGCTTCCTGTTGGACGAGGCGGAGGTCATCTACTGGGGTCTATGTCCTGATTGTTCGATATCCGACACTTCGCGATCACATCCGTGATCACAGCCCGATAACACCAACTCCTGGAAGGAATGCT (double strand) [katGp2] | binds | binds | –
B1 | – | – | no binding
B2 | – | – | binds
